Molecular target: CD63 on cells (human) (UniProt P08962)
Experiment: cell-based or functional assay

Chain of CD63 on cells (human) (P08962 2-238): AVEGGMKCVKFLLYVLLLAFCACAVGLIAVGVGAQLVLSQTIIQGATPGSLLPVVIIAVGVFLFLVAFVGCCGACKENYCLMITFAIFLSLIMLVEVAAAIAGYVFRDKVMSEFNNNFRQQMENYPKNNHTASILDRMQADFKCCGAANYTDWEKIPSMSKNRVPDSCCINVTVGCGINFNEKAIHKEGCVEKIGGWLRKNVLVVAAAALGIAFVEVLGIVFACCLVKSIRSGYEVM

| Binder | lysosomal co-localization with LAMP1 in SK-OV-3 cells (confocal microscopy, 16 hours) | IC50 of cytotoxicity, Colo205 cells (CellTiter-GLO, 4 days) | IC50 of cytotoxicity, HCC1954 cells (CellTiter-GLO, 4 days) | IC50 of cytotoxicity, SK-OV-3 cells (CellTiter-GLO, 4 days) |
| --- | --- | --- | --- | --- |
| bsCD63N74Hxb12 (bispecific antibody, part only; not given: b12 control arm, constant regions, V domains shown, not shown: another chain or arm of the molecule; a dimerising Fc or GST) VH: EVQLQQSGPELVKPGASVKMSCKASGYTFTSYVMHWVRQTPGQGLEWIGYITPYHDGTKYNEKFKGKATLTSDKSSSTAYMELSSLTSEDSAVYYCVGGDNYYYAMDYWGQGTSVTVSA VL: NIMVTQSPSSLAVSAGEKVTMSCKSSQSVLYSSNQKNYLAWYQQKPGQSPKLLIYWASTRVSGVPDRFTGSGSGTDFTLTISRVQAEDLAVYYCHQYFSSFTFGSGTKLEIK | 10 fold lower |  |  |  |
| bsCD63xb12-Duo3 (bispecific antibody, part only; not given: b12 control arm VH and VL, IgG1, V domains shown, part only) VH: EVQLQQSGPELVKPGASVKMSCKASGYTFTSYVMHWVRQTPGQGLEWIGYITPYNDGTKYNEKFKGKATLTSDKSSSTAYMELSSLTSEDSAVYYCVGGDNYYYAMDYWGQGTSVTVSAA VL: NIMVTQSPSSLAVSAGEKVTMSCKSSQSVLYSSNQKNYLAWYQQKPGQSPKLLIYWASTRVSGVPDRFTGSGSGTDFTLTISRVQAEDLAVYYCHQYFSSFTFGSGTKLEIKRT |  | 2.61 µg/mL | 0.424 µg/mL | 0.815 µg/mL |
| bsHER2xCD63-Duo3 with CD63 variant Y46 (bispecific antibody, part only; not given: HER2 arm (IgG1-153) VH and VL, V domains shown, part only) VH: EVQLQQSGPELVKPGASVKMSCKASGHTFTSYVMHWVRQTPGQGLEWIGYITPYNDGTKYNEKFKGKATLTSDKSSSTAYMELSSLTSEDSAVYYCVGGDNYYYAMDYWGQGTSVTVSAA VL: NIMVTQSPSSLAVSAGEKVTMSCKSSQSVLYSSNQKNYLAWYQQKPGQSPKLLIYWASTRVSGVPDRFTGSGSGTDFTLTISRVQAEDLAVYYCHQYFSSFTFGSGTKLEIKRT |  | 0.754 µg/mL | 0.016 µg/mL | 0.045 µg/mL |
| bsHER2xCD63-Duo3 (bispecific antibody, part only; not given: HER2 arm, IgG1, V domains shown, part only) VH: EVQLQQSGPELVKPGASVKMSCKASGYTFTSYVMHWVRQTPGQGLEWIGYITPYNDGTKYNEKFKGKATLTSDKSSSTAYMELSSLTSEDSAVYYCVGGDNYYYAMDYWGQGTSVTVSAA VL: NIMVTQSPSSLAVSAGEKVTMSCKSSQSVLYSSNQKNYLAWYQQKPGQSPKLLIYWASTRVSGVPDRFTGSGSGTDFTLTISRVQAEDLAVYYCHQYFSSFTFGSGTKLEIKRT |  | 0.416 µg/mL | 0.009 µg/mL | 0.017 µg/mL |
| bsCD63xb12-Duo3 with CD63 variant LS52 (bispecific antibody, part only; not given: b12 control arm VH and VL, V domains shown, part only) VH: EVQLQQSGPELVKPGASVKMSCKASGYTFTSYVMHWVRQTPGQGLEWIGYITPYNDGTKYNEKFKGKATLTSDKSSSTAYMELSSLTSEDSAVYYCVGGDNYYYAMDYWGQGTSVTVSAA VL: NIMVTQSPSSLAVSAGEKVTMSCKSSQSVLYHSNQKNYLAWYQQKPGQSPKLLIYWASTRVSGVPDRFTGSGSGTDFTLTISRVQAEDLAVYYCHQYFSSFTFGSGTKLEIKRT |  | 2.25 µg/mL | 0.662 µg/mL | 1.13 µg/mL |
| bsHER2xCD63-Duo3 with CD63 variant T71H (bispecific antibody, part only; not given: HER2 arm (IgG1-153) VH and VL, V domains shown, part only) VH: EVQLQQSGPELVKPGASVKMSCKASGYTFTSYVMHWVRQTPGQGLEWIGYIHPYNDGTKYNEKFKGKATLTSDKSSSTAYMELSSLTSEDSAVYYCVGGDNYYYAMDYWGQGTSVTVSAA VL: NIMVTQSPSSLAVSAGEKVTMSCKSSQSVLYSSNQKNYLAWYQQKPGQSPKLLIYWASTRVSGVPDRFTGSGSGTDFTLTISRVQAEDLAVYYCHQYFSSFTFGSGTKLEIKRT |  | 2.23 µg/mL | 0.03 µg/mL | 0.115 µg/mL |
| bsHER2xCD63-Duo3 with CD63 variant LQ47 (bispecific antibody, part only; not given: HER2 arm, V domains shown, part only) VH: EVQLQQSGPELVKPGASVKMSCKASGYTFTSYVMHWVRQTPGQGLEWIGYITPYNDGTKYNEKFKGKATLTSDKSSSTAYMELSSLTSEDSAVYYCVGGDNYYYAMDYWGQGTSVTVSAA VL: NIMVTQSPSSLAVSAGEKVTMSCKSSHSVLYSSNQKNYLAWYQQKPGQSPKLLIYWASTRVSGVPDRFTGSGSGTDFTLTISRVQAEDLAVYYCHQYFSSFTFGSGTKLEIKRT |  | 0.587 µg/mL | 0.017 µg/mL | 0.048 µg/mL |
| bsHER2xCD63-Duo3 with CD63 variant Y127 (bispecific antibody, part only; not given: HER2 arm (IgG1-153) VH and VL, V domains shown, part only) VH: EVQLQQSGPELVKPGASVKMSCKASGYTFTSYVMHWVRQTPGQGLEWIGYITPYNDGTKYNEKFKGKATLTSDKSSSTAYMELSSLTSEDSAVYYCVGGDNYYYAMDHWGQGTSVTVSAA VL: NIMVTQSPSSLAVSAGEKVTMSCKSSQSVLYSSNQKNYLAWYQQKPGQSPKLLIYWASTRVSGVPDRFTGSGSGTDFTLTISRVQAEDLAVYYCHQYFSSFTFGSGTKLEIKRT |  | 0.472 µg/mL | 0.017 µg/mL | 0.061 µg/mL |
| bsHER2xCD63-Duo3 with CD63 variant LS52 (bispecific antibody, part only; not given: HER2 arm (IgG1-153) VH and VL, V domains shown, part only) VH: EVQLQQSGPELVKPGASVKMSCKASGYTFTSYVMHWVRQTPGQGLEWIGYITPYNDGTKYNEKFKGKATLTSDKSSSTAYMELSSLTSEDSAVYYCVGGDNYYYAMDYWGQGTSVTVSAA VL: NIMVTQSPSSLAVSAGEKVTMSCKSSQSVLYHSNQKNYLAWYQQKPGQSPKLLIYWASTRVSGVPDRFTGSGSGTDFTLTISRVQAEDLAVYYCHQYFSSFTFGSGTKLEIKRT |  | 0.567 µg/mL | 0.018 µg/mL | 0.047 µg/mL |
| bsCD63xb12-Duo3 with CD63 variant Y79H (bispecific antibody, part only; not given: b12 control arm, V domains shown, part only) VH: EVQLQQSGPELVKPGASVKMSCKASGYTFTSYVMHWVRQTPGQGLEWIGYITPYNDGTKHNEKFKGKATLTSDKSSSTAYMELSSLTSEDSAVYYCVGGDNYYYAMDYWGQGTSVTVSAA VL: NIMVTQSPSSLAVSAGEKVTMSCKSSQSVLYSSNQKNYLAWYQQKPGQSPKLLIYWASTRVSGVPDRFTGSGSGTDFTLTISRVQAEDLAVYYCHQYFSSFTFGSGTKLEIKRT |  | 3.41 µg/mL | 0.42 µg/mL | 0.93 µg/mL |
| bsHER2xCD63-Duo3 with CD63 variant Y79H (bispecific antibody, part only; not given: HER2 arm (IgG1-153) VH and VL, V domains shown, part only) VH: EVQLQQSGPELVKPGASVKMSCKASGYTFTSYVMHWVRQTPGQGLEWIGYITPYNDGTKHNEKFKGKATLTSDKSSSTAYMELSSLTSEDSAVYYCVGGDNYYYAMDYWGQGTSVTVSAA VL: NIMVTQSPSSLAVSAGEKVTMSCKSSQSVLYSSNQKNYLAWYQQKPGQSPKLLIYWASTRVSGVPDRFTGSGSGTDFTLTISRVQAEDLAVYYCHQYFSSFTFGSGTKLEIKRT |  | 0.432 µg/mL | 0.008 µg/mL | 0.021 µg/mL |
| bsCD63xb12-Duo3 with CD63 variant LQ47 (bispecific antibody, part only; not given: b12 control arm, V domains shown, part only) VH: EVQLQQSGPELVKPGASVKMSCKASGYTFTSYVMHWVRQTPGQGLEWIGYITPYNDGTKYNEKFKGKATLTSDKSSSTAYMELSSLTSEDSAVYYCVGGDNYYYAMDYWGQGTSVTVSAA VL: NIMVTQSPSSLAVSAGEKVTMSCKSSHSVLYSSNQKNYLAWYQQKPGQSPKLLIYWASTRVSGVPDRFTGSGSGTDFTLTISRVQAEDLAVYYCHQYFSSFTFGSGTKLEIKRT |  | 2.43 µg/mL | 0.753 µg/mL | 1.11 µg/mL |
| bsCD63xb12-Duo3 with CD63 variant T71H (bispecific antibody, part only; not given: b12 control arm, V domains shown, part only) VH: EVQLQQSGPELVKPGASVKMSCKASGYTFTSYVMHWVRQTPGQGLEWIGYIHPYNDGTKYNEKFKGKATLTSDKSSSTAYMELSSLTSEDSAVYYCVGGDNYYYAMDYWGQGTSVTVSAA VL: NIMVTQSPSSLAVSAGEKVTMSCKSSQSVLYSSNQKNYLAWYQQKPGQSPKLLIYWASTRVSGVPDRFTGSGSGTDFTLTISRVQAEDLAVYYCHQYFSSFTFGSGTKLEIKRT |  | 10 µg/mL | 4.89 µg/mL | 3.8 µg/mL |
| bsCD63xb12-Duo3 with CD63 variant Y127 (bispecific antibody, part only; not given: b12 control arm VH and VL, V domains shown, part only) VH: EVQLQQSGPELVKPGASVKMSCKASGYTFTSYVMHWVRQTPGQGLEWIGYITPYNDGTKYNEKFKGKATLTSDKSSSTAYMELSSLTSEDSAVYYCVGGDNYYYAMDHWGQGTSVTVSAA VL: NIMVTQSPSSLAVSAGEKVTMSCKSSQSVLYSSNQKNYLAWYQQKPGQSPKLLIYWASTRVSGVPDRFTGSGSGTDFTLTISRVQAEDLAVYYCHQYFSSFTFGSGTKLEIKRT |  | 1.89 µg/mL | 0.664 µg/mL | 1.08 µg/mL |
| bsCD63xb12-Duo3 with CD63 variant P72H (bispecific antibody, part only; not given: b12 control arm, V domains shown, part only) VH: EVQLQQSGPELVKPGASVKMSCKASGYTFTSYVMHWVRQTPGQGLEWIGYITHYNDGTKYNEKFKGKATLTSDKSSSTAYMELSSLTSEDSAVYYCVGGDNYYYAMDYWGQGTSVTVSAA VL: NIMVTQSPSSLAVSAGEKVTMSCKSSQSVLYSSNQKNYLAWYQQKPGQSPKLLIYWASTRVSGVPDRFTGSGSGTDFTLTISRVQAEDLAVYYCHQYFSSFTFGSGTKLEIKRT | 10 fold lower | 10 µg/mL | 0.92 µg/mL | 1.72 µg/mL |
| bsCD63xb12-Duo3 with CD63 variant Y46 (bispecific antibody, part only; not given: b12 control arm VH and VL, V domains shown, part only) VH: EVQLQQSGPELVKPGASVKMSCKASGHTFTSYVMHWVRQTPGQGLEWIGYITPYNDGTKYNEKFKGKATLTSDKSSSTAYMELSSLTSEDSAVYYCVGGDNYYYAMDYWGQGTSVTVSAA VL: NIMVTQSPSSLAVSAGEKVTMSCKSSQSVLYSSNQKNYLAWYQQKPGQSPKLLIYWASTRVSGVPDRFTGSGSGTDFTLTISRVQAEDLAVYYCHQYFSSFTFGSGTKLEIKRT |  | 5.64 µg/mL | 0.9 µg/mL | 1.37 µg/mL |

Source: patent publication US20190352423A1 (Genmab, published 2019)
